This test addresses T1, GST-TUD1 (Oryza sativa subsp. japonica (Rice), UniProt Q10PI9).
T1 chain: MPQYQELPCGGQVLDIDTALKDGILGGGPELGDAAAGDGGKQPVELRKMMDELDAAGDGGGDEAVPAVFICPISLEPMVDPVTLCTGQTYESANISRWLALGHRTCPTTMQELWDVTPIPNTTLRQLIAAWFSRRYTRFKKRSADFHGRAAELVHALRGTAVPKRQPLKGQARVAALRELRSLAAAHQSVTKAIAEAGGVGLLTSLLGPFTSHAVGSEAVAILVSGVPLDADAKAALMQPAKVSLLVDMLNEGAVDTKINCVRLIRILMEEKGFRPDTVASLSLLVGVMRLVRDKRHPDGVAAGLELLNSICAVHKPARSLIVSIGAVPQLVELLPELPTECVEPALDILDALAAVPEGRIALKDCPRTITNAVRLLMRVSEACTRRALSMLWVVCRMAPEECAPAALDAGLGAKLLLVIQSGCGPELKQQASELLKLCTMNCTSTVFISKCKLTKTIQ
The test is described as follows: GST pull-down.

B1: D1-tagged His (purified D1 fusion protein) (protein)
chain: MGSSCSRSHSLSEAETTKNAKSADIDRRILQETKAEQHIHKLLLLGAGESGKSTIFKQIKLLFQTGFDEAELRSYTSVIHANVYQTIKILYEGAKELSQVESDSSKYVISPDNQEIGEKLSDIDGRLDYPLLNKELVLDVKRLWQDPAIQETYLRGSILQLPDCAQYFMENLDRLAEAGYVPTKEDVLYARVRTNGVVQIQFSPVGENKRGGEVYRLYDVGGQRNERRKWIHLFEGVNAVIFCAAISEYDQMLFEDETKNRMMETKELFDWVLKQRCFEKTSFILFLNKFDIFEKKIQKVPLSVCEWFKDYQPIAPGKQEVEHAYEFVKKKFEELYFQSSKPDRVDRVFKIYRTTALDQKLVKKTFKLIDESMRRSREGT
For the molecule B1, the binding result is “binds”.

The values above are taken from PMC3597501 (2013).
